From patent US9951356B2, “Processes to prepare elongated 2-ketoacids and C6-C10 compounds therefrom via genetic modifications to microbial metabolic pathways” (Dow Global Technologies LLC, priority 2013, dated 2018)

Columns and labels:
Type in all cases: biochemical
[1] = HTP screening assay of LeuB variants, 3-BM; conditions: 1 mM 3-BM, 2 mM NAD+, pH 8.0, 25° C.; mean of duplicates
Description: (§1) The evaluation of the LeuB variants is performed in two steps using the high-throughput enzyme assay described below. Initially, all of the variants are screened for activity against a single high concentration of 3-IPM, 3-BM and 3-HM. Following the initial evaluation, detailed kinetic analysis is performed on a select number of variants to determine the maximal rate (kcat), Michaelis-Menten constant (KM), and the catalytic efficiency of the variant enzymes (kcat/KM).
(§2) A suitable spectrophotometric LeuB enzyme assay is adapted into a high-throughput format in 96-well plates for the kinetic evaluation of LeuB and its variants (shown in Table 1) against 3-isopropylmalate (3-IPM), 3-butylmalate (3-BM), and 3-hexylmalate (3-HM). See, for example, Hsu, Y.; Kohlhaw, G. B. “Leucine biosynthesis in Saccharomyces cerevisiae. Purification and characterization of beta-isopropylmalate dehydrogenase,” J. Biol. Chem., 1980, 255:7255-7260. Steady state kinetic parameters (kcat, KM and kcat/KM) for the oxidative decarboxylation of the three substrates by the variants are determined in these experiments.
(§3) The HTP screening assay involves incubating 750 micromoles (μM) of 3-IPM, 1 mM 3-BM or 1 mM 3-HM, with 2 mM nicotinamide adenine dinucleotide (NAD^+) in LeuB assay buffer (50 mM 4-(2-hydroxyethyl) piperazine-1-ethanesulfonic acid (HEPES), pH 8.0, containing 30 mM potassium chloride (KCl) and 5 mM magnesium chloride (MgCl2)) at 25° C. The reaction is started by the addition at 25° C. of working enzyme stock containing from 0.3 microgram (μg) to 1.1 μg of LeuB variant diluted in assay buffer containing 1 mM DTT and 1 milligram per milliliter (mg/mL) bovine serum albumin (BSA). The plate containing the 200 μL of reaction mixture is centrifuged at 2500×g for 15 seconds (sec) and the absorbance change of the reaction mixture is followed spectrophotometrically at 340 nm on a BioTek™ plate reader, pre-equilibrated at 25° C. Initial velocity of the enzyme reaction is calculated from the rate of NADH production at 340 nm and using the extinction coefficient of NADH (6.22 per millimolar per centimeter (mM^−1cm^−1)). The activity of all the variants is normalized with the amount of enzyme present in the reaction mixture and expressed as nanomoles per minute per microgram (nmol·min^−1·μg^−1) (Table 2). Protein concentrations for normalizing the activities are determined using the 660 nm total protein assay kit acquired from Pierce Biotechnology Inc.™, available from Thermo Fisher Scientific, Inc., and using BSA as the standard.

[2] = HTP LeuB kinetic assay, oxidative decarboxylation of 3-HM; conditions: for increase in efficiency of capturing 3-HM compared with the wild type enzyme: more efficient than wild type LeuB; for Km / kcat: substrate 3-HM, mean ± S.D.
Description: as §1, §2
(§4) The HTP kinetic assay involves incubating eight varied concentrations, of 3-IPM (from 0 to 1.2 mM) or 3-BM (from 0 to 2 mM) or 3-HM (from 0 to 2 mM), with 2 mM NAD^+ in LeuB assay buffer (50 mM HEPES, pH 8.0, containing 30 mM KCl and 5 mM MgCl2) at 25° C. The reaction is started by adding from 0.008 μg to 0.5 μg of LeuB variant which has been pre-diluted in assay buffer containing 1 mM DTT and 1 mg/mL BSA. The plate containing the 200 μl of reaction mixture is centrifuged at 2500×g for 15 sec and the absorbance change is followed spectrophotometrically at 340 nm on a BioTek™ plate reader maintained at 25° C. Initial velocity of the enzyme reaction is calculated from the rate of NADH production at 340 nm and using the extinction coefficient of NADH (6.22 mM^−1cm^−1). The kinetic parameters (kcat, KM and kcat/KM) of oxidative decarboxylation of 3-alkylmalate are determined by fitting the data to the Michaelis-Menten equation using nonlinear regression performed using the GraphPad Prism™ software. Table 3 lists the kinetic parameters of the wild type and engineered variants against the three substrates. The amount of enzyme in the reaction mixture is determined using the 660 nm total protein assay kit acquired from Pierce Biotechnology Inc.™, using BSA as the standard.

[3] = HTP screening assay of LeuB variants, 3-IPM; conditions: 750 μM 3-IPM, 2 mM NAD+, pH 8.0, 25° C.; mean of duplicates
Description: as §1, §2, §3

[4] = HTP screening assay of LeuB variants, 3-HM; conditions: for Specific activity, 3-HM: 1 mM 3-HM, 2 mM NAD+, pH 8.0, 25° C., mean of duplicates; for activity against 3-HM compared with the wild type enzyme: screening at single high concentration
Description: as §1, §2, §3

[5] = HTP LeuB kinetic assay, oxidative decarboxylation of 3-BM; conditions: substrate 3-BM; mean ± S.D.
Description: as §1, §2, §4

Row | Molecule | Specific activity, 3-BM [1] | increase in efficiency of capturing 3-HM compared with the wild type enzyme [2] | Km [2] | kcat [2] | Specific activity, 3-IPM [3] | Specific activity, 3-HM [4] | activity against 3-HM compared with the wild type enzyme [4] | Km [5] | kcat [5]
1 | L96A/V198A: E. coli LeuB variant with Leu-96 and Val-198 both replaced with alanine (protein, UniProt P30125 2-363, looked up, variant L96A V198A) 3-isopropylmalate …: SKNYHIAVLPGDGIGPEVMTQALKVLDAVRNRFAMRITTSHYDVGGAAIDNHGQPLPPATVEGCEQADAVLFGSVGGPKWEHLPPDQQPERGALAPLRKHFKLFSNLRPAKLYQGLEAFCPLRADIAANGFDILCVRELTGGIYFGQPKGREGSGQYEKAFDTEVYHRFEIERIARIAFESARKRRHKVTSIDKANALQSSILWREIVNEIATEYPDVELAHMYIDNATMQLIKDPSQFDVLLCSNLFGDILSDECAMITGSMGMLPSASLNEQGFGLYEPAGGSAPDIAGKNIANPIAQILSLALLLRYSLDADDAACAIERAINRALEEGIRTGDLARGAAAVSTDEMGDIIARYVAEGV | 1.26 nmol/min/µg | 12 fold | 80 ± 10 µM | 2.65 ± 0.067 s⁻¹ | 0.65 nmol/min/µg | 3.3 nmol/min/µg | higher activity than the wild type enzyme |  | 
2 | L96V: E. coli LeuB variant with Leu-96 replaced with valine (protein, UniProt P30125 2-363, looked up, variant L96V) 3-isopropylmalate …: SKNYHIAVLPGDGIGPEVMTQALKVLDAVRNRFAMRITTSHYDVGGAAIDNHGQPLPPATVEGCEQADAVLFGSVGGPKWEHLPPDQQPERGALVPLRKHFKLFSNLRPAKLYQGLEAFCPLRADIAANGFDILCVRELTGGIYFGQPKGREGSGQYEKAFDTEVYHRFEIERIARIAFESARKRRHKVTSIDKANVLQSSILWREIVNEIATEYPDVELAHMYIDNATMQLIKDPSQFDVLLCSNLFGDILSDECAMITGSMGMLPSASLNEQGFGLYEPAGGSAPDIAGKNIANPIAQILSLALLLRYSLDADDAACAIERAINRALEEGIRTGDLARGAAAVSTDEMGDIIARYVAEGV |  |  |  |  | 1.53 nmol/min/µg |  |  |  | 
3 | L96G/V198G: E. coli LeuB variant with Leu-96 and Val-198 both replaced with glycine (protein, UniProt P30125 2-363, looked up, variant L96G V198G) 3-isopropylmalate …: SKNYHIAVLPGDGIGPEVMTQALKVLDAVRNRFAMRITTSHYDVGGAAIDNHGQPLPPATVEGCEQADAVLFGSVGGPKWEHLPPDQQPERGALGPLRKHFKLFSNLRPAKLYQGLEAFCPLRADIAANGFDILCVRELTGGIYFGQPKGREGSGQYEKAFDTEVYHRFEIERIARIAFESARKRRHKVTSIDKANGLQSSILWREIVNEIATEYPDVELAHMYIDNATMQLIKDPSQFDVLLCSNLFGDILSDECAMITGSMGMLPSASLNEQGFGLYEPAGGSAPDIAGKNIANPIAQILSLALLLRYSLDADDAACAIERAINRALEEGIRTGDLARGAAAVSTDEMGDIIARYVAEGV | 0.08 nmol/min/µg |  |  |  | 0.02 nmol/min/µg | 3.6 nmol/min/µg | higher activity than the wild type enzyme |  | 
4 | V198G: E. coli LeuB variant with Val-198 replaced with glycine (protein, UniProt P30125 2-363, looked up, variant V198G) 3-isopropylmalate …: SKNYHIAVLPGDGIGPEVMTQALKVLDAVRNRFAMRITTSHYDVGGAAIDNHGQPLPPATVEGCEQADAVLFGSVGGPKWEHLPPDQQPERGALLPLRKHFKLFSNLRPAKLYQGLEAFCPLRADIAANGFDILCVRELTGGIYFGQPKGREGSGQYEKAFDTEVYHRFEIERIARIAFESARKRRHKVTSIDKANGLQSSILWREIVNEIATEYPDVELAHMYIDNATMQLIKDPSQFDVLLCSNLFGDILSDECAMITGSMGMLPSASLNEQGFGLYEPAGGSAPDIAGKNIANPIAQILSLALLLRYSLDADDAACAIERAINRALEEGIRTGDLARGAAAVSTDEMGDIIARYVAEGV | 1.83 nmol/min/µg |  |  |  | 4.66 nmol/min/µg | 0.5 nmol/min/µg |  |  | 
5 | L96V/V198G: E. coli LeuB variant with Leu-96 replaced with valine and Val-198 with glycine (protein, UniProt P30125 2-363, looked up, variant L96V V198G) 3-isopropylmalate …: SKNYHIAVLPGDGIGPEVMTQALKVLDAVRNRFAMRITTSHYDVGGAAIDNHGQPLPPATVEGCEQADAVLFGSVGGPKWEHLPPDQQPERGALVPLRKHFKLFSNLRPAKLYQGLEAFCPLRADIAANGFDILCVRELTGGIYFGQPKGREGSGQYEKAFDTEVYHRFEIERIARIAFESARKRRHKVTSIDKANGLQSSILWREIVNEIATEYPDVELAHMYIDNATMQLIKDPSQFDVLLCSNLFGDILSDECAMITGSMGMLPSASLNEQGFGLYEPAGGSAPDIAGKNIANPIAQILSLALLLRYSLDADDAACAIERAINRALEEGIRTGDLARGAAAVSTDEMGDIIARYVAEGV | 0.04 nmol/min/µg |  |  |  | 0.05 nmol/min/µg |  |  |  | 
6 | L96G/V198A: E. coli LeuB variant with Leu-96 replaced with glycine and Val-198 with alanine (protein, UniProt P30125 2-363, looked up, variant L96G V198A) 3-isopropylmalate …: SKNYHIAVLPGDGIGPEVMTQALKVLDAVRNRFAMRITTSHYDVGGAAIDNHGQPLPPATVEGCEQADAVLFGSVGGPKWEHLPPDQQPERGALGPLRKHFKLFSNLRPAKLYQGLEAFCPLRADIAANGFDILCVRELTGGIYFGQPKGREGSGQYEKAFDTEVYHRFEIERIARIAFESARKRRHKVTSIDKANALQSSILWREIVNEIATEYPDVELAHMYIDNATMQLIKDPSQFDVLLCSNLFGDILSDECAMITGSMGMLPSASLNEQGFGLYEPAGGSAPDIAGKNIANPIAQILSLALLLRYSLDADDAACAIERAINRALEEGIRTGDLARGAAAVSTDEMGDIIARYVAEGV | 1.49 nmol/min/µg | 102 fold | 50 ± 0.5 µM | 14.6 ± 0.383 s⁻¹ |  | 20.4 nmol/min/µg | higher activity than the wild type enzyme | 3300 ± 400 µM | 4.47 ± 0.35 s⁻¹
